According to article PMC5853329, “EjNAC3 transcriptionally regulates chilling-induced lignification of loquat fruit via physical interaction with an atypical CAD-like gene”:

T1: EjNAC3 (Eriobotrya japonica (loquat), UniProt A0A2D3HXD3 1-352)
T1 sequence: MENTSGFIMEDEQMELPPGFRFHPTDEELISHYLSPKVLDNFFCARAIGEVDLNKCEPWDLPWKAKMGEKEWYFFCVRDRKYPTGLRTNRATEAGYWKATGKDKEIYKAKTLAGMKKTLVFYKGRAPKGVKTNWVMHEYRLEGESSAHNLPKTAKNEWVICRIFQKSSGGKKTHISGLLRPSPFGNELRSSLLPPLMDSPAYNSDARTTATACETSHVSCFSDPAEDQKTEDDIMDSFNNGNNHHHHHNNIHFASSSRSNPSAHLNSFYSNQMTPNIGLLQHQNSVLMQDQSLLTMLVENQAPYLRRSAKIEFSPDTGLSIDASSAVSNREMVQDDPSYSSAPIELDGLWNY


Columns and labels:
EjNAC3 [1] = molecular target: T1, EjNAC3; test: EMSA; 5 mM Mg2+, poly(dI-dC), biotinylated probe 1 nM (legend; Methods 2 nM); LightShift kit binding buffer, 5 mM MgCl2, 2.5% glycerol, 0.05% NP-40, 50 ng/ul poly(dI-dC), 50 ng protein, 20 min room temperature; 6% native PAGE, 0.5x TBE; pH and salt not given; conditions: protein: recombinant; tags: His (pET-32a fusion); chain copies: 2; blunt
EjNAC3 [2] = molecular target: T1, EjNAC3; test: competition; cold probe 100 or 300 nM vs 1 nM biotinylated probe; reduces shift; LightShift kit binding buffer, 5 mM MgCl2, 2.5% glycerol, 0.05% NP-40, 50 ng/ul poly(dI-dC), 50 ng protein, 20 min room temperature; 6% native PAGE, 0.5x TBE; pH and salt not given; conditions: protein: recombinant; tags: His (pET-32a fusion); chain copies: 2; label: none; blunt

Row | Binder | binding result (EjNAC3 [1]) | binding result (EjNAC3 [2])
1 | EjCAD-like promoter probe (-502 to -454) (dsDNA) DNA 1: GTCCTATACGTAATCTTATACTCCAAATAAAATTAGGAATGCAGCATAA DNA 2: TTATGCTGCATTCCTAATTTTATTTGGAGTATAAGATTACGTATAGGAC | binds | 
2 | EjCAD-like promoter cold probe (-502 to -454) (dsDNA) DNA 1: GTCCTATACGTAATCTTATACTCCAAATAAAATTAGGAATGCAGCATAA DNA 2: TTATGCTGCATTCCTAATTTTATTTGGAGTATAAGATTACGTATAGGAC |  | binds
